{"source": "paper PMC8617193", "target": "NFS1 as crystallised in the (NIAU2)2 complexes (human)", "assay": "crystal structure; (NIAU2)2 complexes with wild-type or mutant ISCU2, 16-18 mg/ml, sitting drop, 0.1 M MES pH 6.5, 22.5% PEG-400, 15 °C; space group P41212; 1.57-1.95 Å"}
{"substance": "NFS1 as crystallised in the (NIAU2)2 complexes (enzyme)", "values": [{"measurement": "stoichiometry N", "value": 2}]}
